The data set addresses T1, DNA polymerase kappa catalytic core (Polκ19-526) (Homo sapiens, UniProt Q9UBT6 19-526).
T1 sequence: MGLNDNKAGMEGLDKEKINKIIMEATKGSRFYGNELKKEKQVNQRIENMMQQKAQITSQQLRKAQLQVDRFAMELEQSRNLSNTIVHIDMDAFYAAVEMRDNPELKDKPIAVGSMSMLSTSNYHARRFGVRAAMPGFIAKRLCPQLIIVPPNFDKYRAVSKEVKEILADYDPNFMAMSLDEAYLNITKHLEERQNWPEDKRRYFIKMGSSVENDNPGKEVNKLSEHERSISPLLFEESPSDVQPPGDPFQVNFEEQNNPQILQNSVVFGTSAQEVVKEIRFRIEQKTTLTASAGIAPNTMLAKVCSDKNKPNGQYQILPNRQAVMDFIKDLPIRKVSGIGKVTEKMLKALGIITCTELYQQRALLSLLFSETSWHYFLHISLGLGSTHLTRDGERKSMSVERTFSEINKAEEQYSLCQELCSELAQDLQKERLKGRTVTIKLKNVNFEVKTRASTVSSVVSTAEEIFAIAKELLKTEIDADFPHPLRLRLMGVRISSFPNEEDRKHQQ
Nature of the data set: X-ray crystallography (3.2 Å); dATP, Mg2+ (ternary complex); Crystal structure only; cocrystallization conditions not in the material. The following applies: protein: recombinant; tags: N-terminal GST removed with PreScission protease; 5' overhang 5 nt on template; recessed 3' primer end.

B1: 13-nt/18-nt primer/template with 8-oxoG (dsDNA)
DNA 1: CCTAGGAGTCCTTCCCCC
DNA 2: GGGGGAAGGACTC
modifications: template G5 = 7,8-dihydro-8-oxoguanine; primer 3' terminal C = dideoxycytidine
As to B1, the binding result is “binds”.

The values above are taken from paper PMC2686167, “Structure of Human DNA Polymerase κ Inserting dATP Opposite an 8-OxoG DNA Lesion”.
